1 molecule from patent US20260070983A1 (Eli Lilly, published 2026) can be followed below.

This experiment addresses human PD-1-ECD-His (human). Nature of the experiment: SPR (Biacore), 37 °C.

Sequence of human PD-1-ECD-His (human) (chain, as listed by the source): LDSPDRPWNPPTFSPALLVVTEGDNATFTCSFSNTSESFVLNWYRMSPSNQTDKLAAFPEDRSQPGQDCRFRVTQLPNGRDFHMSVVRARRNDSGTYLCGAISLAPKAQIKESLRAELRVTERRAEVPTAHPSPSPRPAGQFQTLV

B1: peresolimab (antibody, V domains shown)
VH: QVQLVQSGAEVKKPGASVKVSCKVSGYSLSKYDMSWVRQAPGKGLEWMGIIYTSGYTDYAQKFQGRVTMTEDTSTDTAYMELSSLRSEDTAVYYCATGNPYYTNGFNSWGQGTLVTVSS
VL: DIQMTQSPSSLSASVGDRVTITCQASQSPNNLLAWYQQKPGKAPKLLIYGASDLPSGVPSRFSGSGSGTDFTLTISSLQPEDFATYYCQNNYYVGPVSYAFGGGTKVEIK
The term Kd denotes a measure of binding affinity in units of concentration. Read a high Kd as lower affinity. What is called koff is a measure of how fast the partners let go of each other. A higher koff goes with a short-lived complex. As a reminder, the kon is the second-order rate constant of association. A high value points to faster complex formation. For B1, the Kd stood at 2.29 nM, the koff came to 0.000701 s⁻¹ and the kon was 307000 M⁻¹ s⁻¹.
